{"source": "patent US20170290877A1", "target": "JNK in primary mouse cortical neurons", "assay": "cell-based or functional assay", "note": "Non-standard residues stand in square brackets, D forms with d. No end group written: not given here."}
{"binder": "[dD][dQ][dS][dR][dP][dV][dQ][dP][dF][dL][dN][dL][dT][dT][dP][dR][dK][dP][dR][dP][dP][dR][dR][dR][dQ][dR][dR][dK][dK][dR]G", "note": "[D-TAT-IB1(s)]", "values": [{"measurement": "JNK activation in Aβ42-stressed PKR-/- neurons (immunoblot), XG-102 at 10 µM", "value": -35, "unit": "%"}, {"measurement": "JNK activity as ratio pJNK/JNK after 1 mM H2O2 (immunoblot), XG-102 at 10 µM (% of controls)", "value": 45}, {"measurement": "c-Jun phosphorylation in Aβ42-stressed WT neurons (immunoblot), XG-102 at 10 µM", "value": -74, "unit": "%"}]}
